In paper PMC4650826 one finds stoichiometry N data, which are given here for one substance.

For experiment [1], the target named is Hcp1 (hemolysin-coregulated protein 1) of Burkholderia pseudomallei, recombinant wildtype (B. pseudomallei). Put plainly: dynamic light scattering; 8 mg/mL; apparent molecular weight in solution.
Experiment [2] shares this target. Put plainly: AUC.

Several values for one entry are separate records, joined by “and”; a condition that tells them apart may be missing. Equal entries are not always repeated.

Take “Hcp1 (hemolysin-coregulated protein 1) of Burkholderia pseudomallei, recombinant wildtype (natural protein)”: the stoichiometry N (usually a count of units in the complex or per binding partner) in experiment [1] is 12; in experiment [2], 6 and 12.
